The values below come from US20250129166A1 (Five Prime, published 2025).

B1: P1-072000 (P1-061029_F100fE_V102D) (antibody, human IgG1, kappa, V domains shown)
VH: EVQLVESGGGLVQPGKSLRLSCAASGFTLDDYAMHWVRQAPGKGLEWVSGINWNSANIGYADSVKGRFTISRDNAKNSLYLQMNSLRTEDTALYYCAKVPGYSGGWIDAEDDWGQGTMVTVSS
VL: not shown
notes: also called P1-72000
B2: P1-071793 (P1-070916_HC_K16R_T84A, FW revertant) (antibody, V domains shown)
VH: EVQLVESGGGLVQPGRSLRLSCAASGFTLEDYAMHWVRQAPGKGLEWVSGINWNSANIGYADSVKGRFTISRDNAKNSLYLQMNSLRAEDTALYYCAKVPGYSGGWIDAEDDWGQGTMVTVSS
VL: not shown
notes: VH/VL only
B3: P1-071781 (P1-070906_HC_K16R_T84A, FW revertant) (antibody, V domains shown)
VH: EVQLVESGGGLVQPGRSLRLSCAASGFTLEDYAMHWVRQAPGKGLEWVSGINWNSENIGYADSVKGRFTISRDNAKNSLYLQMNSLRAEDTALYYCAKVPGYSGGWIDAEDDWGQGTMVTVSS
VL: not shown
notes: VH/VL only
B4: P1-072008 (P1-061029_Y32E_F100fE) (antibody, human IgG1, kappa, V domains shown)
VH: EVQLVESGGGLVQPGKSLRLSCAASGFTLDDEAMHWVRQAPGKGLEWVSGINWNSANIGYADSVKGRFTISRDNAKNSLYLQMNSLRTEDTALYYCAKVPGYSGGWIDAEDVWGQGTMVTVSS
VL: not shown
notes: also called P1-72008
B5: P1-071767 (P1-068761_HC_T84A, FW revertant) (antibody, V domains shown)
VH: EVQLVESGGGLVQPGKSLRLSCAASGFTLEDEAMHWVRQAPGKGLEWVSGINWNSEEIGYADSVKGRFTISRDNAKNSLYLQMNSLRAEDTALYYCAKVPGYSHGWIDAEDVWGQGTMVTVSS
VL: not shown
notes: VH/VL only
B6: P1-071791 (P1-070908_HC_T84A, FW revertant) (antibody, V domains shown)
VH: EVQLVESGGGLVQPGKSLRLSCAASGFTLEDYAMHWVRQAPGKGLEWVSGIDWNSANIGYADSVKGRFTISRDNAKNSLYLQMNSLRAEDTALYYCAKVPGYSGGWIDAEDDWGQGTMVTVSS
VL: not shown
notes: VH/VL only
B7: P1-071783 (P1-070906_HC_K16R, FW revertant) (antibody, V domains shown)
VH: EVQLVESGGGLVQPGRSLRLSCAASGFTLEDYAMHWVRQAPGKGLEWVSGINWNSENIGYADSVKGRFTISRDNAKNSLYLQMNSLRTEDTALYYCAKVPGYSGGWIDAEDDWGQGTMVTVSS
VL: not shown
notes: VH/VL only
B8: P1-071771 (P1-068767_HC_K16R, FW revertant) (antibody, V domains shown)
VH: EVQLVESGGGLVQPGRSLRLSCAASGFTLEDYAMHWVRQAPGKGLEWVSGIDWNSENIGYADSVKGRFTISRDNAKNSLYLQMNSLRTEDTALYYCAKVPGYSGGWIDAEDDWGQGTMVTVSS
VL: not shown
notes: VH/VL only
B9: P1-071797 (P1-070916_HC_T84A, FW revertant) (antibody, V domains shown)
VH: EVQLVESGGGLVQPGKSLRLSCAASGFTLEDYAMHWVRQAPGKGLEWVSGINWNSANIGYADSVKGRFTISRDNAKNSLYLQMNSLRAEDTALYYCAKVPGYSGGWIDAEDDWGQGTMVTVSS
VL: not shown
notes: VH/VL only
B10: P1-072004 (P1-061029_V102D) (antibody, human IgG1, kappa, V domains shown)
VH: EVQLVESGGGLVQPGKSLRLSCAASGFTLDDYAMHWVRQAPGKGLEWVSGINWNSANIGYADSVKGRFTISRDNAKNSLYLQMNSLRTEDTALYYCAKVPGYSGGWIDAFDDWGQGTMVTVSS
VL: not shown
notes: also called P1-72004
B11: P1-071773 (P1-068767_HC_T84A, FW revertant) (antibody, V domains shown)
VH: EVQLVESGGGLVQPGKSLRLSCAASGFTLEDYAMHWVRQAPGKGLEWVSGIDWNSENIGYADSVKGRFTISRDNAKNSLYLQMNSLRAEDTALYYCAKVPGYSGGWIDAEDDWGQGTMVTVSS
VL: not shown
notes: VH/VL only
B12: P1-071777 (P1-070868_HC_K16R, FW revertant) (antibody, V domains shown)
VH: EVQLVESGGGLVQPGRSLRLSCAASGFTLEDEAMHWVRQAPGKGLEWVSGINWNSAEIGYADSVKGRFTISRDNAKNSLYLQMNSLRTEDTALYYCAKVPGYSHGWIDAEDVWGQGTMVTVSS
VL: not shown
notes: VH/VL only
B13: P1-071789 (P1-070908_HC_K16R, FW revertant) (antibody, V domains shown)
VH: EVQLVESGGGLVQPGRSLRLSCAASGFTLEDYAMHWVRQAPGKGLEWVSGIDWNSANIGYADSVKGRFTISRDNAKNSLYLQMNSLRTEDTALYYCAKVPGYSGGWIDAEDDWGQGTMVTVSS
VL: not shown
notes: VH/VL only
B14: P1-071769 (P1-068767_HC_K16R_T84A, FW revertant) (antibody, V domains shown)
VH: EVQLVESGGGLVQPGRSLRLSCAASGFTLEDYAMHWVRQAPGKGLEWVSGIDWNSENIGYADSVKGRFTISRDNAKNSLYLQMNSLRAEDTALYYCAKVPGYSGGWIDAEDDWGQGTMVTVSS
VL: not shown
notes: VH/VL only
B15: P1-071787 (P1-070908_HC_K16R_T84A, FW revertant) (antibody, V domains shown)
VH: EVQLVESGGGLVQPGRSLRLSCAASGFTLEDYAMHWVRQAPGKGLEWVSGIDWNSANIGYADSVKGRFTISRDNAKNSLYLQMNSLRAEDTALYYCAKVPGYSGGWIDAEDDWGQGTMVTVSS
VL: not shown
notes: VH/VL only
B16: P1-071795 (P1-070916_HC_K16R, FW revertant) (antibody, V domains shown)
VH: EVQLVESGGGLVQPGRSLRLSCAASGFTLEDYAMHWVRQAPGKGLEWVSGINWNSANIGYADSVKGRFTISRDNAKNSLYLQMNSLRTEDTALYYCAKVPGYSGGWIDAEDDWGQGTMVTVSS
VL: not shown
notes: VH/VL only
B17: P1-071765 (P1-068761_HC_K16R, FW revertant) (antibody, V domains shown)
VH: EVQLVESGGGLVQPGRSLRLSCAASGFTLEDEAMHWVRQAPGKGLEWVSGINWNSEEIGYADSVKGRFTISRDNAKNSLYLQMNSLRTEDTALYYCAKVPGYSHGWIDAEDVWGQGTMVTVSS
VL: not shown
notes: VH/VL only
B18: P1-071785 (P1-070906_HC_T84A, FW revertant) (antibody, V domains shown)
VH: EVQLVESGGGLVQPGKSLRLSCAASGFTLEDYAMHWVRQAPGKGLEWVSGINWNSENIGYADSVKGRFTISRDNAKNSLYLQMNSLRAEDTALYYCAKVPGYSGGWIDAEDDWGQGTMVTVSS
VL: not shown
notes: VH/VL only
B19: P1-071779 (P1-070868_HC_T84A, FW revertant) (antibody, V domains shown)
VH: EVQLVESGGGLVQPGKSLRLSCAASGFTLEDEAMHWVRQAPGKGLEWVSGINWNSAEIGYADSVKGRFTISRDNAKNSLYLQMNSLRAEDTALYYCAKVPGYSHGWIDAEDVWGQGTMVTVSS
VL: not shown
notes: VH/VL only
B20: P1-071763 (P1-068761_HC_K16R_T84A, FW revertant) (antibody, V domains shown)
VH: EVQLVESGGGLVQPGRSLRLSCAASGFTLEDEAMHWVRQAPGKGLEWVSGINWNSEEIGYADSVKGRFTISRDNAKNSLYLQMNSLRAEDTALYYCAKVPGYSHGWIDAEDVWGQGTMVTVSS
VL: not shown
notes: VH/VL only
B21: P1-071775 (P1-070868_HC_K16R_T84A, FW revertant) (antibody, V domains shown)
VH: EVQLVESGGGLVQPGRSLRLSCAASGFTLEDEAMHWVRQAPGKGLEWVSGINWNSAEIGYADSVKGRFTISRDNAKNSLYLQMNSLRAEDTALYYCAKVPGYSHGWIDAEDVWGQGTMVTVSS
VL: not shown
notes: VH/VL only

In this test the target is T1, monovalent hVISTA-ECD (amino acids 32-193 of SEQ ID NO: 1 with a 7xHis tail) (human, UniProt Q9H7M9 33-193).
T1 construct: also called huVISTA-His; human VISTA-ECD
T1 sequence (Q9H7M9 other isoform, or with tags, fused parts or gaps limits assumed): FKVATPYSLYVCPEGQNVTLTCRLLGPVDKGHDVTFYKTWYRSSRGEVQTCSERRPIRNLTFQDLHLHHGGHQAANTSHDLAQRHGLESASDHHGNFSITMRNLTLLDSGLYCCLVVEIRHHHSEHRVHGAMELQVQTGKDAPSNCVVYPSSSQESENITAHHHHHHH
In words: SPR, mAb on Protein A, 37C, pH 6.0; pH 6.0. The method, then: Binding of several preparations of each of the '029 progeny clones and of the parent '029 antibodies, formatted as IgG1.3 antibodies, to human VISTA at pH 6.0 and 7.4 was measured by Surface plasmon resonance (SPR). SPR analysis was performed to measure koff and KD binding affinity measurements for VISTA Abs at acidic and neutral pHs using a Biacore® T100 instrument (GE Healthcare). Protein A (ThermoFisher Scientific catalog #21181) was diluted to 20 μg/ml in 10 mM sodium acetate pH 4.5 and immobilized onto flow cells of a CM5 biosensor following the manufacturer's amine coupling protocol (GE Healthcare), targeting 2,000 RU immobilization density of Protein A per flow cell. SPR experiments were conducted at 37° C. using PBST (137 mM sodium chloride, 2.7 mM potassium chloride, 10 mM phosphate buffer, 0.05% Tween® 20) running buffer at pH 7.4 and 6.0. Antibodies were diluted to 25 nM in PBST pH 7.4, and were captured across active biosensor flow cells at 5 ul/min for 60 seconds. A concentration series of 50-5 nM monovalent hVISTA-ECD (SEQ ID NO: 325) was prepared in pH 7.4 and 6.0 running buffers, and was injected over the captured antibodies at 40 ul/min to measure association and dissociation. Two 15 second injections of 10 mM glycine pH 1.5 were used to regenerate the Protein A capture surface between assay cycles. Rate constants ka (kₒₙ) and kd (koff) were derived from reference flow cell and 0 nM blank-subtracted sensorgrams, and were fit to a 1:1 binding model in Biacore® T200 Evaluation Software v.2.0. The affinity constant, KD was calculated as the ratio of rate constants koff/kₒₙ for each VISTA antibody.
The molecule B1 registered a dissociation constant (Kd) of 12 nM, an off-rate constant (koff) of 0.0023 s⁻¹ and a kon of 200000 M⁻¹ s⁻¹.
Turning to B2, binding was put at a Kd of 8.1 nM, the koff was found to be 0.0017 s⁻¹ and the kon was 210000 M⁻¹ s⁻¹.
In turn, B3 returned a Kd of 7.7 nM, a koff of 0.0017 s⁻¹ and a kon of 220000 M⁻¹ s⁻¹.
On to B4, for which the dissociation constant Kd was 88 nM, the dissociation rate constant (koff) was determined as 0.024 s⁻¹ and the association rate constant (kon) came to 270000 M⁻¹ s⁻¹.
In turn, B5 yielded an equilibrium dissociation constant (Kd) of 5.1 nM, a koff of 0.0016 s⁻¹ and an on-rate (kon) of 310000 M⁻¹ s⁻¹.
B6 registered a dissociation constant Kd of 11 nM, an off-rate (koff) of 0.0027 s⁻¹ and a kon of 240000 M⁻¹ s⁻¹.
The molecule B7 came in with a dissociation constant (Kd) of 7.6 nM, an off-rate constant (koff) of 0.0017 s⁻¹ and a kon of 220000 M⁻¹ s⁻¹.
In turn, B8 had a Kd of 11 nM, an off-rate constant (koff) of 0.0026 s⁻¹ and a kon of 250000 M⁻¹ s⁻¹.
With B9, the Kd was determined as 7.7 nM, the off-rate constant (koff) stood at 0.0017 s⁻¹ and the kon is 220000 M⁻¹ s⁻¹.
B10 showed a Kd of 180 nM, a koff of 0.025 s⁻¹ and a kon of 140000 M⁻¹ s⁻¹.
The like results for B11 were, in that order, 9.8 nM, 0.0026 s⁻¹ and 270000 M⁻¹ s⁻¹.
The like results for B12 were, in that order, 6.4 nM, 0.0017 s⁻¹ and 270000 M⁻¹ s⁻¹.
In turn, B13 returned a Kd of 13 nM, an off-rate (koff) of 0.0026 s⁻¹ and a kon of 210000 M⁻¹ s⁻¹.
In the same order, the values of B14 are 11 nM, 0.0026 s⁻¹ and 240000 M⁻¹ s⁻¹.
B15 returned an equilibrium dissociation constant (Kd) of 13 nM, a koff of 0.0027 s⁻¹ and a kon of 210000 M⁻¹ s⁻¹.
The molecule B16 yielded a Kd of 8.1 nM, a koff of 0.0017 s⁻¹ and an association rate constant (kon) of 210000 M⁻¹ s⁻¹.
B17 returned a Kd of 5 nM and a kon of 280000 M⁻¹ s⁻¹.
For the molecule B18, binding was put at a Kd of 6.7 nM, the off-rate constant (koff) is 0.0017 s⁻¹ and the kon came to 250000 M⁻¹ s⁻¹.
In the same order, the values of B19 are 7 nM, 0.0018 s⁻¹ and 260000 M⁻¹ s⁻¹.
As for B20, the Kd is 4.9 nM, the dissociation rate constant (koff) turned out to be 0.0014 s⁻¹ and the on-rate (kon) is 290000 M⁻¹ s⁻¹.
Consider B21, for which the dissociation constant (Kd) worked out at 6.9 nM, the dissociation rate constant (koff) turned out to be 0.0017 s⁻¹ and the kon turned out to be 250000 M⁻¹ s⁻¹.
